Results taken from PMC10397247.

Experiments:
4H331-bH = biological target: T1, 4H331-bH; experiment: two-hybrid library CCNG1;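 further: natural log of median RNA to DNA barcode read ratio; higher means stronger binding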
T1 chain: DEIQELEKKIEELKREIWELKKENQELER

4H3354-bH = biological target: T2, 4H3354-bH; experiment: two-hybrid library CCNG1;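 further: natural log of median RNA to DNA barcode read ratio; higher means stronger binding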
T2 chain: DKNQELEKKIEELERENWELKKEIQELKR

4H338-bH = biological target: T3, 4H338-bH; experiment: two-hybrid library CCNG1;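 further: natural log of median RNA to DNA barcode read ratio; higher means stronger binding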
T3 chain: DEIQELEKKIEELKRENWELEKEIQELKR

4H3427-bH = biological target: T4, 4H3427-bH; experiment: two-hybrid library CCNG1;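 further: natural log of median RNA to DNA barcode read ratio; higher means stronger binding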
T4 chain: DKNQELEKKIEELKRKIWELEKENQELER

4H3606-bH = biological target: T5, 4H3606-bH; experiment: two-hybrid library CCNG1
T5 chain: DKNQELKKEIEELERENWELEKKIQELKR

4H370-bH = biological target: T6, 4H370-bH; experiment: two-hybrid library CCNG1
T6 chain: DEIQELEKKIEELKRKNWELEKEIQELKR

4H3782-bH = biological target: T7, 4H3782-bH; experiment: two-hybrid library CCNG1
T7 chain: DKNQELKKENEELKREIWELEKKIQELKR

4H3843-bH = biological target: T8, 4H3843-bH; experiment: two-hybrid library CCNG1
T8 chain: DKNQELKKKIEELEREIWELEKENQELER

4H3855-bH = biological target: T9, 4H3855-bH; experiment: two-hybrid library CCNG1
T9 chain: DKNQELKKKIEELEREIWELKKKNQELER

4H4001-bH = biological target: T10, 4H4001-bH; experiment: two-hybrid library CCNG1
T10 chain: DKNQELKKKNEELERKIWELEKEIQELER

4H454-bH = biological target: T11, 4H454-bH; experiment: two-hybrid library CCNG1
T11 chain: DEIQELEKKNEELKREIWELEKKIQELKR

4H462-bH = biological target: T12, 4H462-bH; experiment: two-hybrid library CCNG1
T12 chain: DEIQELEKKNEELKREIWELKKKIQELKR

4H568-bH = biological target: T13, 4H568-bH; experiment: two-hybrid library CCNG1
T13 chain: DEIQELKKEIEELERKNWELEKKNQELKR

4H607-bH = biological target: T14, 4H607-bH; experiment: two-hybrid library CCNG1
T14 chain: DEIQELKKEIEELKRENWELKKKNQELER

4H687-bH = biological target: T15, 4H687-bH; experiment: two-hybrid library CCNG1
T15 chain: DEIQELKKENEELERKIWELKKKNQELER

4H717-bH = biological target: T16, 4H717-bH; experiment: two-hybrid library CCNG1
T16 chain: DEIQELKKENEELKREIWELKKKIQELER

4H72-bH = biological target: T17, 4H72-bH; experiment: two-hybrid library CCNG1
T17 chain: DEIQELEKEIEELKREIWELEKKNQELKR

4H754-bH = biological target: T18, 4H754-bH; experiment: two-hybrid library CCNG1
T18 chain: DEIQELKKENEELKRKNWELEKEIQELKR

4H754-bN = biological target: T19, 4H754-bN; experiment: two-hybrid library CCNG1
T19 chain: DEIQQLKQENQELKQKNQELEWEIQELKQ

4H797-bH = biological target: T20, 4H797-bH; experiment: two-hybrid library CCNG1
T20 chain: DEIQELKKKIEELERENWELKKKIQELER

4H883-bH = biological target: T21, 4H883-bH; experiment: two-hybrid library CCNG1
T21 chain: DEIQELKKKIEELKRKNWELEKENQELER

4H908-bH = biological target: T22, 4H908-bH; experiment: two-hybrid library CCNG1
T22 chain: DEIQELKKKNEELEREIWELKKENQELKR

4H918-bH = biological target: T23, 4H918-bH; experiment: two-hybrid library CCNG1
T23 chain: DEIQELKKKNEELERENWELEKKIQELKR

4H953-bH = biological target: T24, 4H953-bH; experiment: two-hybrid library CCNG1
T24 chain: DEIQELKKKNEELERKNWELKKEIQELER

4H967-bH = biological target: T25, 4H967-bH; experiment: two-hybrid library CCNG1
T25 chain: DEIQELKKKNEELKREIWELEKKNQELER

4H2760-bN = biological target: T26, 4H2760-bN; experiment: two-hybrid library CCNG1
T26 chain: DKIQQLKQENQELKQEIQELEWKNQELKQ

4H2859-bN = biological target: T27, 4H2859-bN; experiment: two-hybrid library CCNG1
T27 chain: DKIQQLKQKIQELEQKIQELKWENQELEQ

4H2931-bN = biological target: T28, 4H2931-bN; experiment: two-hybrid library CCNG1
T28 chain: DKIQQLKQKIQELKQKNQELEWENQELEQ

4H3041-bN = biological target: T29, 4H3041-bN; experiment: two-hybrid library CCNG1
T29 chain: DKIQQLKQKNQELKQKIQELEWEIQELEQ

4H3297-bN = biological target: T30, 4H3297-bN; experiment: two-hybrid library CCNG1
T30 chain: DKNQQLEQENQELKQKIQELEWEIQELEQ

4H3364-bN = biological target: T31, 4H3364-bN; experiment: two-hybrid library CCNG1
T31 chain: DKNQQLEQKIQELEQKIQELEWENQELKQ

4H3381-bN = biological target: T32, 4H3381-bN; experiment: two-hybrid library CCNG1
T32 chain: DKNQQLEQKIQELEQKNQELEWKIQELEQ

4H349-bN = biological target: T33, 4H349-bN; experiment: two-hybrid library CCNG1
T33 chain: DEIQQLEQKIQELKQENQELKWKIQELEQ

4H56-bN = biological target: T34, 4H56-bN; experiment: two-hybrid library CCNG1
T34 chain: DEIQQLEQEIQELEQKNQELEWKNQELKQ

4H730-bN = biological target: T35, 4H730-bN; experiment: two-hybrid library CCNG1
T35 chain: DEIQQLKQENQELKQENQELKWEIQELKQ

4H796-bN = biological target: T36, 4H796-bN; experiment: two-hybrid library CCNG1
T36 chain: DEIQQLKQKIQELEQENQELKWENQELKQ

4H932-bN = biological target: T37, 4H932-bN; experiment: two-hybrid library CCNG1
T37 chain: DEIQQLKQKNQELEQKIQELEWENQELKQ

4H949-bN = biological target: T38, 4H949-bN; experiment: two-hybrid library CCNG1
T38 chain: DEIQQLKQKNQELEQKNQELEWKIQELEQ

4H355-AA = biological target: T39, 4H355-AA; experiment: two-hybrid library CCmax
T39 chain: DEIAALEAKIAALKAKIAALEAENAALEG

4H3651-AA = biological target: T40, 4H3651-AA; experiment: two-hybrid library CCmax; details: mean of both orientations
T40 chain: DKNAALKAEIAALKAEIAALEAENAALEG

4H3705-AA = biological target: T41, 4H3705-AA; experiment: two-hybrid library CCmax; details: mean of both orientations
T41 chain: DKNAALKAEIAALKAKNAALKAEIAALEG

4H3782-AA = biological target: T42, 4H3782-AA; experiment: two-hybrid library CCmax; details: mean of both orientations
T42 chain: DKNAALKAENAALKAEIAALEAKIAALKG

4H465-AA = biological target: T43, 4H465-AA; experiment: two-hybrid library CCmax; details: mean of both orientations
T43 chain: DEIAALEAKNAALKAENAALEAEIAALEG

4H486-AA = biological target: T44, 4H486-AA; experiment: two-hybrid library CCmax; details: mean of both orientations
T44 chain: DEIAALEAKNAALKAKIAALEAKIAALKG

4H535-AA = biological target: T45, 4H535-AA; experiment: two-hybrid library CCmax
T45 chain: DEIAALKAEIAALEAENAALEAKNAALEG

4H58-AA = biological target: T46, 4H58-AA; experiment: two-hybrid library CCmax; details: mean of both orientations
T46 chain: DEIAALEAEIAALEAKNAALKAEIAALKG

4H895-AA = biological target: T47, 4H895-AA; experiment: two-hybrid library CCmax; details: mean of both orientations
T47 chain: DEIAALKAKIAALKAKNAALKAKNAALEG

4H_APH = biological target: T48, 4H_APH; experiment: two-hybrid library CCmax
T48 chain: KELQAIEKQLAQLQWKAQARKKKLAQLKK

4H_BCR = biological target: T49, 4H_BCR; experiment: two-hybrid library CCmax; details: mean of both orientations
T49 chain: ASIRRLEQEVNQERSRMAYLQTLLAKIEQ

4H_GCN4 = experiment: two-hybrid library CCmax
GCN2_T = experiment: two-hybrid library CCmax
P2-AA-12HAA-R = biological target: T50, P2-AA-12HAA-R; experiment: two-hybrid library CCmax
T50 chain: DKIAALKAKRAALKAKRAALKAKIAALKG

O4-bA = biological target: T51, O4-bA; experiment: two-hybrid library CCNG1
T51 chain: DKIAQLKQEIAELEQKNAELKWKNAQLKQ

O5-bA = biological target: T52, O5-bA; experiment: two-hybrid library CCNG1
T52 chain: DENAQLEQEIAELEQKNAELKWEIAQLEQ

O6-bA = biological target: T53, O6-bA; experiment: two-hybrid library CCNG1
T53 chain: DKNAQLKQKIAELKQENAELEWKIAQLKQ

O7-bA = biological target: T54, O7-bA; experiment: two-hybrid library CCNG1
T54 chain: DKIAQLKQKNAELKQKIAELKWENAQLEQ

O8-bA = biological target: T55, O8-bA; experiment: two-hybrid library CCNG1
T55 chain: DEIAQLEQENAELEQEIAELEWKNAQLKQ

O9-bA = biological target: T56, O9-bA; experiment: two-hybrid library CCNG1
T56 chain: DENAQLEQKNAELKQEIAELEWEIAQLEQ

Sequence of 4H_GCN4 (chain, as listed by the source): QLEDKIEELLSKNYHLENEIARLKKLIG

Binder: DEIQELEKKIEELKREIWELKKENQELER [4H331-bH]
- interaction score (4H331-bH): 1.45
- interaction score (4H3354-bH): -0.721
- interaction score (4H338-bH): 0.213
- interaction score (4H3427-bH): 1.6
- interaction score (4H3606-bH): 0.467
- interaction score (4H370-bH): -0.325
- interaction score (4H3782-bH): -0.0752
- interaction score (4H3843-bH): 0.837
- interaction score (4H3855-bH): 0.334
- interaction score (4H4001-bH): 0.891
- interaction score (4H454-bH): -0.0612
- interaction score (4H462-bH): 0.445
- interaction score (4H568-bH): -1.97
- interaction score (4H607-bH): -1.89
- interaction score (4H687-bH): -0.531
- interaction score (4H717-bH): -1.1
- interaction score (4H72-bH): 0.733
- interaction score (4H754-bH): -1.42
- interaction score (4H754-bN): -1.25
- interaction score (4H797-bH): -0.0604
- interaction score (4H883-bH): 0.193
- interaction score (4H908-bH): -0.0604
- interaction score (4H918-bH): -1.11
- interaction score (4H953-bH): -0.344
- interaction score (4H967-bH): -0.299

Binder: DKIQQLKQENQELKQEIQELEWKNQELKQ [4H2760-bN]
- interaction score (4H2760-bN): -0.578
- interaction score (4H2859-bN): 1.03
- interaction score (4H2931-bN): -0.107
- interaction score (4H3041-bN): -0.517
- interaction score (4H3297-bN): -1.61
- interaction score (4H3364-bN): -0.234
- interaction score (4H3381-bN): 0.638
- interaction score (4H349-bN): -1.63
- interaction score (4H56-bN): -0.482
- interaction score (4H730-bN): -0.45
- interaction score (4H796-bN): 0.11
- interaction score (4H932-bN): -1.77
- interaction score (4H949-bN): 0.472

Binder: DEIAALEAKIAALKAKIAALEAENAALEG [4H355-AA]
- interaction score (4H355-AA): 0.592
- interaction score (4H3651-AA): 0.086
- interaction score (4H3705-AA): -1.7
- interaction score (4H3782-AA): 0.393
- interaction score (4H465-AA): -1.96
- interaction score (4H486-AA): -0.342
- interaction score (4H535-AA): -0.775
- interaction score (4H58-AA): 1.08
- interaction score (4H895-AA): -0.0681
- interaction score (4H_APH): -0.88
- interaction score (4H_BCR): -1.56
- interaction score (4H_GCN4): -1.7
- interaction score (GCN2_T): -2.04
- interaction score (P2-AA-12HAA-R): -2.32

Binder: DKIAQLKQEIAELEQKNAELKWKNAQLKQ [O4-bA]
- interaction score (O4-bA): 0.158
- interaction score (O5-bA): -0.0834
- interaction score (O6-bA): 1.17
- interaction score (O7-bA): 0.351
- interaction score (O8-bA): -1.68
- interaction score (O9-bA): -0.232
